{
  "source": "paper PMC10858482",
  "biological_target": "SARS-CoV-2 Omicron BA.1 spike protein (SARS-CoV-2 (Omicron BA.1)) (UniProt P0DTC2)",
  "assay": "cryo-EM structure; Tr67 and Omicron BA.1 spike mixed in a 1.5:1 weight ratio, 0.3 mg/ml; single-particle analysis, C3 symmetry, map at ~9 Å",
  "data": [
    {"substance": "SARS-CoV-2 Omicron BA.1 spike protein (from UniProt P0DTC2 14-1273) (natural protein)", "values": [
      {"measurement": "stoichiometry N", "value": 3}
    ]}
  ]
}
